In patent US20140304853:

Legend:
Test in all cases: cell_activity
[1] = tested on: ZFN 34480 (synthetic); conditions: pair 34480/34481, A-genome; B 11946, D 11790; wheat protoplasts
[2] = tested on: ZFN 34457 (synthetic); conditions: pair 34456/34457, A-genome; B 1716, D 10399; wheat protoplasts
[3] = tested on: ZFN 34472 (synthetic); conditions: pair 34472/34473, A-genome; B 100300, D 87770; wheat protoplasts
[4] = tested on: ZFN 29730 (synthetic); conditions: pair 29732/29730, D-genome, donor pDAS000152 10:1, SEC protoplasts; A 6717, B 6306
[5] = tested on: ZFN 34474 (synthetic); conditions: pair 34474/34475, A-genome; B 251142, D 202711; wheat protoplasts
[6] = tested on: ZFN 34483 (synthetic); conditions: pair 34482/34483, A-genome; B 33888, D 28719; wheat protoplasts
[7] = tested on: ZFN 34481 (synthetic); conditions: pair 34480/34481, A-genome; B 11946, D 11790; wheat protoplasts
[8] = tested on: ZFN 34477 (synthetic); conditions: pair 34476/34477, A-genome; B 56001, D 44459; wheat protoplasts
[9] = tested on: ZFN 34482 (synthetic); conditions: pair 34482/34483, A-genome; B 33888, D 28719; wheat protoplasts
[10] = tested on: ZFN 34471 (synthetic); conditions: pair 34470/34471, A-genome; B 156139, D 134694; wheat protoplasts
[11] = tested on: ZFN 34456 (synthetic); conditions: pair 34456/34457, A-genome; B 1716, D 10399; wheat protoplasts
[12] = tested on: ZFN 29732 (synthetic); conditions: pair 29732/29730, D-genome, donor pDAS000152 10:1, SEC protoplasts; A 6717, B 6306
[13] = tested on: ZFN 34476 (synthetic); conditions: pair 34476/34477, A-genome; B 56001, D 44459; wheat protoplasts
[14] = tested on: ZFN 34473 (synthetic); conditions: pair 34472/34473, A-genome; B 100300, D 87770; wheat protoplasts
[15] = tested on: ZFN 34470 (synthetic); conditions: pair 34470/34471, A-genome; B 156139, D 134694; wheat protoplasts
[16] = tested on: ZFN 34478 (synthetic); conditions: pair 34478/34479, A-genome; B 2731, D 3069; wheat protoplasts
[17] = tested on: ZFN 34475 (synthetic); conditions: pair 34474/34475, A-genome; B 251142, D 202711; wheat protoplasts
[18] = tested on: ZFN 34479 (synthetic); conditions: pair 34478/34479, A-genome; B 2731, D 3069; wheat protoplasts

Sequence: ACCATGGGGATGGAGTCGAGGAGNGCGT (double strand) [34480 site]
- activity (NHEJ events per million reads) [1]: 11800

Sequence: ACCTCCCCCGCCGTCGCATTCTCNGGCG (double strand) [34457 site]
- activity (NHEJ events per million reads) [2]: 12600

Sequence: ACGCCGACGCGGCCGGACGCGCGGGCGT (double strand) [34472 site]
- activity (NHEJ events per million reads) [3]: 120000

Sequence: AGGCAGCACGTGCTCCTGATGCGGGACT (double strand) [29730 site]
- activity (ppm NHEJ editing) [4]: 7910

Sequence: CAGACGCCGACGCGGCCGGACGCGCGGG (double strand) [34474 site]
- activity (NHEJ events per million reads) [5]: 248000

Sequence: CATCACGGGCCAGGTCCCCCGCCGCATG (double strand) [34483 site]
- activity (NHEJ events per million reads) [6]: 28700

Sequence: CCATCACGGGCCAGGTCCCCCGCCGCAT (double strand) [34481 site]
- activity (NHEJ events per million reads) [7]: 11800

Sequence: CCTCCGGCCCGGGGGCCACCAACCTCGT (double strand) [34477 site]
- activity (NHEJ events per million reads) [8]: 48300

Sequence: CGACCATGGGGATGGAGTCGAGGAGNGC (double strand) [34482 site]
- activity (NHEJ events per million reads) [9]: 28700

Sequence: CGTCGGCGTCTGCGTCGCCACCTCCGGC (double strand) [34471 site]
- activity (NHEJ events per million reads) [10]: 178000

Sequence: CNGCGGCCATGGCGGCGGCGAGGGTTTG (double strand) [34456 site]
- activity (NHEJ events per million reads) [11]: 12600

Sequence: GATCCCAAGCGGTGGTGCTTTCAAGGAC (double strand) [29732 site]
- activity (ppm NHEJ editing) [12]: 7910

Sequence: GCGACGCAGACGCCGACGCGGCCGGACG (double strand) [34476 site]
- activity (NHEJ events per million reads) [13]: 48300

Sequence: GCGTCGCCACCTCCGGCCCGGGGGCCAC (double strand) [34473 site]
- activity (NHEJ events per million reads) [14]: 120000

Sequence: GGCCGGACGCGCGGGCGTANCCGGACGC (double strand) [34470 site]
- activity (NHEJ events per million reads) [15]: 178000

Sequence: GGGATGGAGTCGAGGAGNGCGTCNGCGA (double strand) [34478 site]
- activity (NHEJ events per million reads) [16]: 3070

Sequence: GTCGCCACCTCCGGCCCGGGGGCCACCA (double strand) [34475 site]
- activity (NHEJ events per million reads) [17]: 248000

Sequence: TGGTCGCCATCACGGGCCAGGTCCCCCG (double strand) [34479 site]
- activity (NHEJ events per million reads) [18]: 3070
